Test results taken from patent US20070016969.

Target: hirudin in milk of BC1-GB-Hir transgenic mice (UniProt P01050)
Sequence (P01050 whole entry): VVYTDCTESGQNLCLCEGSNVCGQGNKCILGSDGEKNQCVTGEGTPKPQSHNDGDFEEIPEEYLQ

thrombin (thrombin solution, 50 U/ml)
anti-coagulation activity (chromogenic thrombin substrate Tos-Gly-Pro-Arg-4-NA, A405): milk collected from lactating transgenic mice of the invention has a high level of anti-coagulation activity in comparison with that from non-transgenic mice (normal mouse milk)
